In US20120045391A1 (NATIONAL RESEARCH COUNCIL CANADA, published 2012):

T1: IGFBP7 (recombinant; preparation not specified) (UniProt Q16270 27-282)
T1 construct: also called immobilized IGFBP7; recombinant IGFBP7
T1 sequence (looked up): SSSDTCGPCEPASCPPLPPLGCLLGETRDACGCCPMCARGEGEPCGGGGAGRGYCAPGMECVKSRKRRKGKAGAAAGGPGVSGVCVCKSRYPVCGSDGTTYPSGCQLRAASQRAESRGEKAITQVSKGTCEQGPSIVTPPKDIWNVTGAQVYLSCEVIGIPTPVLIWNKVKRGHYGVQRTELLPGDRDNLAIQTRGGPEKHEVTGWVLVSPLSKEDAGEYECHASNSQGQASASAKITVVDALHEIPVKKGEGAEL

T2: recombinant protein IGFBP7 from R&D (UniProt Q16270 27-282)
T2 construct: Bought protein immobilized on the Biacore chip; also called recombinant IGFBP7
T2 sequence (looked up): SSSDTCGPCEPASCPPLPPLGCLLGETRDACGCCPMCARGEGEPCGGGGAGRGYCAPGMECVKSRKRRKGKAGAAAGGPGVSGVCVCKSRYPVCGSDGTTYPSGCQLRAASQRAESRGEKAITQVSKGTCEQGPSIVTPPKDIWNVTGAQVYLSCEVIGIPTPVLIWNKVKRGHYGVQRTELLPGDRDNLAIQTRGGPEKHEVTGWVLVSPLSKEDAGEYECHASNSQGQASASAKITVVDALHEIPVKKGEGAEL

T3: recombinant custom-synthesized IGFBP7 (UniProt Q16270 27-282)
T3 construct: also called custom-synthesized recombinant IGFBP7
T3 sequence (looked up): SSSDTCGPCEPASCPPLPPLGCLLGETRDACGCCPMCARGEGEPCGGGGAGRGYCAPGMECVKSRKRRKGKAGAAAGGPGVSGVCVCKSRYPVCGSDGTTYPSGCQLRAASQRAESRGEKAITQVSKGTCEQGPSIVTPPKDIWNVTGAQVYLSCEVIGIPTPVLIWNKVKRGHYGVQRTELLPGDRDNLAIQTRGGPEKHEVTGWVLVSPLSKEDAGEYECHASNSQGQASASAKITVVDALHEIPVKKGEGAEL


Legend:
[1] = target: T1, IGFBP7 (recombinant; preparation not …); experiment: SPR, fit to a steady state model
[2] = target: T2, recombinant protein IGFBP7 from R&D; experiment: SPR, steady state analysis as Scatchard plot, IGFBP7 as ligand
[3] = target: T3, recombinant custom-synthesized IGFBP7; experiment: SPR, steady state analysis, IGFBP7 as ligand
[4] = target: T2, recombinant protein IGFBP7 from R&D; experiment: SPR, steady state analysis, IGFBP7 as ligand

| Binder | Kd [1] | Kd [2] | Kd [3] | Kd [4] |
| --- | --- | --- | --- | --- |
| sdAb clone 4.6-IGFBP7 (VHH, also called IGFBP7-4.6; not shown: c-Myc detection tag and 5xHis purification tag added at the C-terminus by vector pSJF2) VHH: QVKLEESGGGSVQPGGSLRLSCAASGRTFSRLAMGWFRQAPGKERELVAGISRSGDGTHYAYSVKGRFTISRDNAANTVELQMNSLKPEDTAVYFCAAARTAFYYYGNDYNYWGQGTQVTVSS | ~1000 nM | – | – | – |
| sdAb clone 4.43-IGFBP7 (VHH, not shown: c-Myc detection tag and 5xHis purification tag added at the C-terminus by vector pSJF2) VHH: QVKLEESGGGLVQAGGSLRLSCAASGRTSRRYAMGWFRQAPGKEREFVAGISRSGDGTHYAYSVKGRFTISRDNAANTVELQMNSLKPEDTAVYFCAAARTAFYYYGNDYNYWGQGTQVTVSS | – | 50 nM | 30 nM | 40 nM |
